Measured values as given in PMC12107149 (Proceedings of the National Academy of Sciences of the …, 2022).

Target: PU.1 DNA-binding domain (PU.1^DBD) (human, UniProt P17947 168-270)
Assay: NMR titration

- binding result: binds
B1: EWS low-complexity domain (EWS^LCD) (domain or fragment)
chain: ASTDYSTYSQAAAQQGYSAYTAQPTQGYAQTTQAYGQQSYGTYGQPTDVSYTQAQTTATYGQTAYATSYGQPPTGYTTPTAPQAYSQPVQGYGTGAYDTTTATVTTTQASYAAQSAYGTQPAYPAYGQQPAATAPTRPQDGNKPTETSQPQSSTGGYNQPSLGYGQSNYSYPQVPGSYPMQPVTAPPSYPPTSYSSTQPTSYDQSSYSQQNTYGQPSSYGQQSSYGQQSSYGQQPPTSYPPQTGSYSQAPSQYSQQSSSYGQQ
